For orientation: stoichiometry N means a count of units in the complex or per binding partner.

Experiment [1] concerns the target actinorhodopsin (ActR, ActRL06) from Nanopelagicus ca., produced in E. coli (Nanopelagicus ca.). The experiment is described as follows: SEC; analytical size-exclusion chromatography of ActR at the neutral pH of the scramblase assays. In general terms: SEC sorts molecules by how far they enter the pores of the column.
Experiment [2] has the same target. The experiment is described as follows: negative stain electron microscopy; ActR from E. coli, purified through the metal affinity step, in elution buffer with DDM, pH 7.4, 8-240 ug/mL on grids, 2% uranyl acetate; preliminary single particle analysis.
Experiment [3] shares this target. The experiment is described as follows: SEC; analytical size-exclusion chromatography of ActR at low pH.

“And” between values parts separate entries of the source, which are not always exact repeats. Equal values may be shown once.

Turning to “actinorhodopsin (ActR, ActRL06) from Nanopelagicus ca., produced in E. coli (natural protein)”, the stoichiometry N in experiment [1] is 5 and 3; in experiment [2], 5; in experiment [3], 3.

Values taken from paper PMC12805836.
